# According to publication PMC6585436 (Chemistry & biology, 2015):
# Biological target: MtMscL CΔ48 C-GFP (pet15b-MtMscL CΔ(103–151)-S-TEV-GFP-6xHis) (Mycobacterium tuberculosis) (UniProt A5U127)
# Assay: native MS
substance,measurement,value
MtMscL CΔ48 C-GFP (pet15b-MtMscL CΔ(103–151)-S-TEV-GFP-6xHis) (from UniProt A5U127 1-102) (domain or fragment),stoichiometry N,5
